# Experimental data: the supplement of paper PMC9112550, “Optimization of the antimicrobial peptide Bac7 by deep mutational scanning” (BMC Biology, 2022)
# System: Escherichia coli TOP10
# Assay: shrunken log2 fold change of peptide-encoding DNA abundance (4.5 h post-induction vs induction); higher = less antimicrobial activity (less host growth inhibition)
# Conditions: time post-induction: 4.5 h; library: site-saturation at positions 5, 18, 19, 20
# 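Further: peptides expressed intracellularly from a pBAD plasmid library in pooled LB shake-flask culture, induced with 0.3% L-arabinose, DNA abundance read by NGS, three biological replicates, DESeq2 with apeglm shrinkage.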
row,Sequence,shrunken log2 fold change
1,RRIRRRPPRLPRPRPRPFNEPRP,-0.846
2,RRIRRRPPRLPRPRPRPFPCPRP,0.038
3,RRIRRRPPRLPRPRPRPFQKPRP,-0.0282
4,RRIRRRPPRLPRPRPRPFQMPRP,-0.138
5,RRIRRRPPRLPRPRPRPFSRPRP,0.18
6,RRIRRRPPRLPRPRPRPFTVPRP,-0.118
7,RRIRRRPPRLPRPRPRPGACPRP,0.475
8,RRIRRRPPRLPRPRPRPGDHPRP,0.0619
9,RRIRRRPPRLPRPRPRPGEVPRP,1.28
10,RRIRRRPPRLPRPRPRPGFIPRP,-0.00928
11,RRIRRRPPRLPRPRPRPGGCPRP,0.325
12,RRIRRRPPRLPRPRPRPGITPRP,-0.0143
13,RRIRRRPPRLPRPRPRPGKHPRP,-0.0322
14,RRIRRRPPRLPRPRPRPGKYPRP,-0.307
15,RRIRRRPPRLPRPRPRPGLMPRP,0.342
16,RRIRRRPPRLPRPRPRPGLTPRP,0.508
17,RRIRRRPPRLPRPRPRPGNVPRP,0.418
18,RRIRRRPPRLPRPRPRPGPRPRP,0.917
19,RRIRRRPPRLPRPRPRPGQAPRP,0.0103
20,RRIRRRPPRLPRPRPRPGQEPRP,0.777

row,Sequence,shrunken log2 fold change
1,RRIRRRPPRLPRPRPRPGQWPRP,0.312
2,RRIRRRPPRLPRPRPRPGRWPRP,0.591
3,RRIRRRPPRLPRPRPRPGSFPRP,0.122
4,RRIRRRPPRLPRPRPRPGSYPRP,-0.0811
5,RRIRRRPPRLPRPRPRPGTRPRP,0.117
6,RRIRRRPPRLPRPRPRPGVWPRP,0.47
7,RRIRRRPPRLPRPRPRPHAKPRP,0.0278
8,RRIRRRPPRLPRPRPRPHAWPRP,0.438
9,RRIRRRPPRLPRPRPRPHCIPRP,0.0457
10,RRIRRRPPRLPRPRPRPHECPRP,0.0921
11,RRIRRRPPRLPRPRPRPHEGPRP,0.28
12,RRIRRRPPRLPRPRPRPHEVPRP,0.0299
13,RRIRRRPPRLPRPRPRPHGFPRP,0.114
14,RRIRRRPPRLPRPRPRPHGMPRP,0.0957
15,RRIRRRPPRLPRPRPRPHHEPRP,0.0234
16,RRIRRRPPRLPRPRPRPHIAPRP,-0.0643
17,RRIRRRPPRLPRPRPRPHIIPRP,-0.259
18,RRIRRRPPRLPRPRPRPHISPRP,-0.0794
19,RRIRRRPPRLPRPRPRPHIWPRP,-0.0694
20,RRIRRRPPRLPRPRPRPHLHPRP,0.216

row,Sequence,shrunken log2 fold change
1,RRIRRRPPRLPRPRPRPHMRPRP,0.29
2,RRIRRRPPRLPRPRPRPHNIPRP,-0.127
3,RRIRRRPPRLPRPRPRPHPHPRP,0.147
4,RRIRRRPPRLPRPRPRPHPSPRP,-0.0167
5,RRIRRRPPRLPRPRPRPHPVPRP,0.175
6,RRIRRRPPRLPRPRPRPHQAPRP,-0.019
7,RRIRRRPPRLPRPRPRPHQRPRP,0.14
8,RRIRRRPPRLPRPRPRPHQVPRP,0.1
9,RRIRRRPPRLPRPRPRPHQYPRP,2.56
10,RRIRRRPPRLPRPRPRPHRFPRP,-0.0954
11,RRIRRRPPRLPRPRPRPHRTPRP,0.102
12,RRIRRRPPRLPRPRPRPHSCPRP,0.0404
13,RRIRRRPPRLPRPRPRPHTMPRP,-0.0621
14,RRIRRRPPRLPRPRPRPHWEPRP,0.127
15,RRIRRRPPRLPRPRPRPHWRPRP,0.0155
16,RRIRRRPPRLPRPRPRPHYSPRP,-0.538
17,RRIRRRPPRLPRPRPRPIAGPRP,-0.12
18,RRIRRRPPRLPRPRPRPICIPRP,0.232
19,RRIRRRPPRLPRPRPRPICMPRP,0.296
20,RRIRRRPPRLPRPRPRPIDKPRP,-0.0465
